Test results as given in patent US12202866B2, “Therapeutic nanoconjugates and uses thereof” (UNIVERSITAT AUTÒNOMA DE BARCELONA (UAB), priority 2017, dated 2025).
Marks after values point to notes of the source that are not given here.

How the values were obtained:
SW1417 CRC cells = assay: MTT cytotoxicity in SW1417 CRC cells; type: cell-based, human; conditions: compared to free oligo-FdU, 72 h, 1.0-1,000 nM
[1] = test system: subcutaneous CXCR4^+ SW1417 CRC tumor; assay: Induction of DNA double strand breaks and apoptosis in tumor tissue, SC SW1417 model; type: in vivo, mouse
Method: (§1) The SC SW1417 mouse model was used to determine the capacity of the nanoconjugate to induce DNA damage and apoptosis in tumor tissue, as well as the kinetics of CXCR4 expression in the membrane of tumor cells after treatment, regarding the fraction of CXCR4 expressing tumor cells and their intensity, since CXCR4^+ are the target cells for the nanoconjugate. […] The mice had been treated with equimolecular dosages of T22-GFP-H6, free oligo-FdU or Buffer, in which also were determined the levels of CXCR4 expression in tumor tissue at the different time points.

[2] = Nanoparticle size by dynamic light scattering; type: physicochemical
Method: The volume and size distribution of the nanoparticles was determined by dynamic light scattering at 633 nm (Zetasizer Nano ZS, Malvern Instruments Limited, Malvern, Worcestershire, UK). Nanoconjugate size was also measured using purified samples, diluted to 0.2 mg/mL and contrasted by evaporation of 1 nm platinum layer in carbon-coated grids, before being visualized in a Hitachi H-7000 transmission electron microscope (TEM), as described33.

[3] = test system: subcutaneous CXCR4^+ SW1417 CRC tumor; assay: Tumor uptake and tumor cell internalization in subcutaneous CXCR4+ SW1417 CRC model; parameters: tumor uptake measured by fluorescence emission: dose or concentration left out as unconfirmed
Method: SC model was used to assess tumor uptake and nanoconjugate internalization and in vivo competition studies using co-administration of the CXCR4 antagonist AMD3100.
Two hours, 5 h and 24 h after the administration, the mouse was euthanized to resect the tumor and register ex vivo the intensity of the green fluorescence emitted by the nanoconjugated that biodistributed to tumor tissue using the IVIS® 200-Spectrum (Perkin Elmer, MA, USA). Following, tumor tissue samples were taken, processed and performed immunohistochemistry (IHC) to determine the presence or absence of the corresponding nanoconjugate into cytosol of tumor cells using an anti-GFP antibody (1:300; Santa-Cruz Biotechnology, CA, USA). […] Apoptosis was assessed determining nuclear condensation with Hoechst staining of tumor tissue sections and counting the number of condensed or defragmented nuclei in five high-power magnification fields in different sections for each tumor using the Olympus DP73 digital camera and the CellD Imaging 3.3 programme (Olympus, Tokyo, Japan).

[4] = Biodistribution and toxicity in normal organs, bone marrow and circulating blood cells; type: in vivo, mouse
Method: At necropsy, bone marrow was extracted and registered ex vivo in the IVIS® 200-Spectrum equipment. Mouse blood was collected by punction in the maxillary plexus. The erythrocytes, leucocytes and platelets were isolated by the Ficoll density gradient method using the standard protocol. Further, pellets were obtained by centrifugation of the isolated cell extracts at 600 g, 10 min and then recorded to measure fluorescence using IVIS® 200-Spectrum.
In addition, two independent observers evaluated the possible histopathological alterations observed in H&E stained non-tumor tissue samples, searching for signs of toxicity.

[5] = test system: CXCR4^+ SW1417 CRC metastases; assay: Regression of established metastasis protocol, orthotopic CXCR4+ SW1417 CRC model; type: in vivo, Swiss nude mice
Method: Swiss nude mice were anesthetized with ketamine and xylazine, exteriorizing their cecum by a laparotomy. 2×106 CXCR4^+ SW1417-luci CRC cells (expressing luciferase, to allow ex vivo bioluminescent identification of metastatic foci in affected organs at the end of therapy) were suspended in […] of modified Eagle's medium, and loaded into a sterile micropipette. The cell suspension was slowly injected, under a binocular lens, with an approximate 30° angle and its tip introduced 5 mm into the cecal wall. Afterward, a slight pressure was applied with a cotton stick at approximately 2 mm from the injection point in the direction of the pipette axis. The pipette was pulled out and the area around the injection cleaned with 3% iodine. After injection, the gut was returned to the abdominal cavity and closed with surgical staples.
The orthotopic and metastatic CRC model developed in Swiss nude mice was employed to perform experiments of metastasis regression. […] The experiment was finished when the first animal of the buffer-treated-group had to be euthanized. See below the studied parameters to evaluate the antimetastatic effect.
At necropsy, the number and size of visible metastases in the organs where dissemination is expected in colorectal cancer (lymph nodes, liver, lung and peritoneum) were recorded for each mouse in all compared groups. Also the number of metastatic foci that emitted bioluminiscence (derived from the SW1417-luci CRC cells) were counted ex vivo in the target organs for metastasis, using the IVIS® 200-Spectrum (Perkin-Elmer). Samples for histopathological and immunohistochemical analyses were collected and processed. Two independent observers analyzed H&E stained samples to count the number and measure the size of all observed metastatic foci in three (metastasis prevention experiment) or six (regression of metastasis experiment) sections of each organ in each mouse. The images were taken and the measurements were performed with an Olympus microscope with the CellD Olympus software (v3.3). […] The obtained results were used to study a possible correlation between CXCR4^+ CCF and antimetastatic effect at the different sites.
In order to analyze differences between control and experimental groups of affected mice in metastatic rates at the different organs, Fisher's exact test was used. The Mann-Whitney test was used to compare number and size of metastatic foci in the affected organs among groups. All quantitative values were expressed as mean±SE and the statistical tests were performed using SPSS version 11.0 (IBM, New York, USA). Differences among groups was considered significant at a p<0.05.

CXCR4^+ HeLa cells = assay: MTT cytotoxicity in CXCR4+ HeLa cells; type: cell-based, human; conditions: compared to free oligo-FdU
Method: Afterwards, a graphic displaying the linearized T22-GFP-H6-FdU dose-response trend line representation to compare cell viability for both compounds was constructed. Reduction of cell viability was also determined by optical microscope images of HeLa cells exposed to 1 μM […] for 48 h, as compared to T22-GFP-H6 or free FdU.

[6] = test system: CXCR4^+ cancer cells in SC SW1417 CRC tumor; assay: CXCR4+ cancer cell fraction in tumor tissue along time after single dose (anti-CXCR4 IHC); type: in vivo, mouse
Method: as §1

CXCR4^+ SW1417 CRC cells = assay: Internalization in CXCR4+ SW1417 CRC cells (flow cytometry, AMD3100 competition); type: cell-based, human; parameters: internalization measured by fluorescence emission using flow cytometry: dose or concentration left out as unconfirmed; conditions: 1 hour exposure
Method: CXCR4+ SW1417-luc CRC cells were cultured in modified Eagle's medium (Gibco, Rockville, MD) supplemented with 10% fetal calf serum (Gibco), and incubated at 37° C. and 5% CO2 in a humidified atmosphere. […] Fluorescence emission was measured with a D detector (530/30 nm band pass filter). To assess specificity for CXCR4 receptor-mediated internalization, competition studies were performed incubating CRC SW1417 cells with the CXCR4 antagonist AMD3100 (Sigma Aldrich) in a 1:10 (protein:antagonist) molar ratio for 1 h before exposure to the nanoconjugate at […] for an additional hour.
The cells were washed in phosphate-buffered saline (Sigma-Aldrich). Live cells were recorded by TCS-SP5 confocal laser scanning microscopy (Leica Microsystems, Heidelberg, Germany) using a Plan Apo 63×/1.4 (oil HC×PL APO lambda blue) objective as described. To determine particle localization inside the cell, stacks of 10-20 sections forevery 0.5 μm of cell thickness were collected and three-dimensional models were generated using Imaris version 6.1.0 software (Bitplane, Zurich, Switzerland).

## T22-GFP-H6-FdU: nanoconjugate of T22-GFP-H6 protein nanoparticle covalently bound via maleimide linker to thiol-functionalized pentameric floxuridine oligonucleotide (oligo-FdU)
SW1417 CRC cells
  cytotoxicity measured by cell viability or phase-contrast microscopy: significantly higher cytotoxicity than free oligo-FdU
[1]; 24 h after injection
  number of apoptotic figures in tumor tissue (Hoechst nuclear condensation or defragmentation): 13.9±0.5
[1]; five hours after treatment
  number of DSBs foci in tumors (anti-gH2AX IHC): 22.8±1.4
[2]; Example 2, unit not given
  size determined by dynamic light scattering: 14.6+0.14
[2]; Example 3
  size (DLS): 14.66+0.14 nm
[3]; 5 h after injection, i.v.
  tumor uptake measured by fluorescence emission: selective tumor uptake
[3]; single i.v. dose
  internalization into CXCR4^+ tumor cell cytosol by anti-GFP immunohistochemistry: internalized
[4]; 5 h after doses in the 10-100 μg range
  fluorescence emission in erythrocytes, leucocytes or platelets: Lack of fluorescence emission
[4]; 5 h after single injections, 10-100 μg range
  fluorescence emission in spleen or bone marrow: Lack of fluorescence emission
[4]; 5 h after treatment
  level of DSBs in liver (anti-gH2AX IHC): undetectable
[4]; 24 h post-administration
  apoptosis or histological alteration in bone marrow or liver: not detected
[4]; regression and prevention of metastases experiments
  mouse body weight: lack of mouse body weight loss
[5]; Regression protocol, 20 μg (or equimolecular) q3d x10 i.v., 6 histology sections, mean + SE
  LN foci, mean foci number per mouse: 0.4 ± 0.1 ^h,i
[5]; Regression protocol, 6 histology sections, mean + SE
  Lung foci, mean foci number per mouse: 0.7 ± 0.4 ^k,l,m
[5]; compared to free oligo-FdU
  regression of established lung metastasis: more potent than free oligo-FdU
[5]; regression experiment, compared to buffer treated animals
  primary tumor growth by in vivo bioluminescence emission: significantly inhibited tumor growth
CXCR4^+ HeLa cells
  cytotoxicity in HeLa cells: higher cytotoxicity than free oligo-FdU
[6]; 24 h after single dose
  CXCR4^+ CCF remaining in tumor tissue: reduced
[6]; 48 h after single dose
  CXCR4^+ CCF remaining in tumor tissue: undetectable
CXCR4^+ SW1417 CRC cells
  internalization measured by fluorescence emission using flow cytometry: internalized
